Experimental data taken from the DeepSol protein solubility set.

Assay: soluble on expression in E. coli; label from the status in PepcDB or PDB records

| Sequence | soluble on expression in E. coli |
| --- | --- |
| MNDVVLSCKNVSKKYTEFKTDIAILKDVNLEIKKGEKVAILGLSGSGKTTLLNVLGGLDKCSAGEVYLMGERFDNQSVNKRAKMRNKHLGFIYQLHHLLPEFTAIENVMIPLAITKKYTKKESIKLANEILKKVGLDHRADHKPAELSGGERQRVAIARALVTNPNCILADEPTGNLDSQRSESIFALMQQLSDDFGTSFVIVTHDEKLASRMNKIYRLVDGELELVINSN | not soluble |
| SLPVSYIENQSAVINQGDFLTQLSNIKNYSSKLSTNFYDNYEKITNWVLSGANINELTQFNIQPQIMRGFDGFQNVLMTGYYSPILYARHSPQGQFKNPIYRMPVKKRLSRAQIYAGALAGKRLELAYSDSMLENFLLGVQGSGYVDFGDGNLNYFAYAGQNGYPYTAIGRLLVEDGEIPKEKMSIQAIREWGNRNPSRIQSLLERNEAYVFFKNDPSGKVKGSAGVPLVAMASVASDRNIIPSGSVLLVEVPDIDNNGNWLGTHKLHLMVALDVGGAVKGHHFDLYRGIGARAGHIAGLSKHYGRVWVLR | soluble |
| MLDHVSITVSDIAVAEPFYDAIMAALGVVKVGARGDWLGYGERARPEHPDRVYLSIRKGDRPEPAYGRHWCFKATSRAVVDAFWQAGLAHGGVDQGAPGLRDYHPGYYAAFIADPDGNRLEAVCHTLG | not soluble |
| TLTVNGPPIISSTQTQHALHGEKGQIKCFIRSTPPPDRIAWSWKENVLESGTSGRYTVETISTEEGVISTLTISNIVRADFQTIYNCTAWNSFGSDTEIIRLKEQGSEM | soluble |
| SVLLSRELHPVAPLLDNLISALNKVYQRKGVNISMDISPEISFVGEQNDFVEVMGNVLDNACKYCLEFVEISARQTDDHLHIFVEDDGPGIPHSKRSLVFDRGQRADTLRPGQGVGLAVAREITEQYAGQIIASDSLLGGARMEVVFGRQHPTQKEE | soluble |
| MKKSSLNNLEYLDISQEVNALQVPNTPFLSYLLGAGKVEAAKSTEIKWREYGMNNDDSSAQLEGGEYADAESDRTWFNNYTEIFRKSTSVSGTLDAINVDGVGNELNSQVALRATEMKIDLNRKLIVGVKADESGSKGRQMNGILNLISSTNKVETAAAGAVTRKDIDALFKTMFQKGYMGEKLCLVAPDMQELMIDQLDEKSTKIVQFGDKLTFGLQLGNIVSNYGSGIALIEPNLPNGTIAAIDTNYVKLRPLREWRAEELAKTTDSRRIGLVGEYSIEYKASNSGAILNLKA | not soluble |
| MPQYKLTYFDLRGWAEPARQLFHLSHTPYDDIRIPMADTEGKWEKMRDKTPFGQLPVLNVDGFDIPQSAAICRYLAKKFGYAGKTPEEEAWADAVVDQFKDFSVAFKTLLFATRAGKPEEEILKIRYEIFNPARDVYFILLNRILKKSKSGYLVGDGLTWADLVIADNLHSLEKLRAIDDDDEGHQNLKKYKEKIYGTPDLEDHIATRMDTEV | not soluble |
| MHHHHHHSSGVDLGTENLYFQSMLNTSGSGTILIDLSPDDKEFQSVEEEMQSTVREHRDGGHAGGIFNRYNILKIQKVCNKKLWERYTHRRKEVSEENHNHANERMLFHGSPFVNAIIHKGFDERHAYIGGMFGAGIYFAENSSKSNQYVYGIGGGTGCPVHKDRSCYICHRQLLFCRVTLGKSFLQFSAMKMAHSPPGHHSVTGRPSVNGLALAEYVIYRGEQAYPEYLITYQIMRPEG | soluble |
| MSSLGASFVQIKFDDLQFFENCGGGSFGSVYRAKWISQDKEVAVKKLLKIEKEAEILSVLSHRNIIQFYGVILEPPNYGIVTEYASLGSLYDYINSNRSEEMDMDHIMTWATDVAKGMHYLHMEAPVKVIHRDLKSRNVVIAADGVLKICDFGASRFHNHTTHMSLVGTFPWMAPEVIQSLPVSETCDTYSYGVVLWEMLTREVPFKGLEGLQVAWLVVEKNERLTIPSSCPRSFAELLHQCWEADAKKRPSFKQIISILESMSNDTSLPDKCNSFLHNKAEWRCEIEATLERLKKLERDLSFKEQELKERERRLKMWEQKLTEQSNTPLLLPLAARMSEESYFESKTEESNSAEMSCQITATSNGEGHGMNPSLQAMMLMGFGDIFSMNKAGAVMHSGMQINMQAKQNSSKTTSKRRGKKVNMALGFSDFDLSEGDDDDDDDGEEEDNDMDNSE | soluble |
| MGSDKIHHHHHHMPIYVYWGEDDFAMEKAIAVLRDHVLDPNWISFNYTAFTPDQADAAIQALNQVMTPTFGAGGRLVWLINTTLYQHCPENVLAELVRSLSVIPENSFLLLSSRNKPDERLKSTKLLKQFATEFREFPLIPPWKTELLVQSVNQVAQTVGVKLTANTAQLLAESVGNDTRLLYNEIEKLRLYAYGSNKPLDVDTVTKLVRNTTQNSLQLAAAIRIGDTAKALTTLADMINASEPGLRIVATLIGQFRTWLWVKIMIESGERNQQAIAIAADIGNPKRIYFLQQEIKLLSVQQLISCLPLLLELEVSLKQGASEMSTFQTKVIELCQVCQGS | not soluble |
| MKTARLLSSGALALSLLAGSVTAAVSPDEAAKLGSSLTPIGAQKEGNADGSIPAWTGGLAASAGKVDGKGFLSDPFADEKPLFTITAQNVEQYKDKLSDGQLAMFKRYPETYRIPVYKTHRTVALPAEIDEAVKQSALNVQPINDGNGLSNFEKSRYYAFPIPKNGVEVLWNHITRYRGGNLKRTIVQATPQTNGSFTPIRFEESVAFPQNMPDLDQSKAANILTFFKQQVTAPARLAGNVLLVHETLDQVKEPRLAWVYNAGQRRVRRAPQVAYDGPGTAADGLRTSDNFDMFSGAPDRYDWKLVGKREMYIPYNAYKLNDPTLKYSDIIKAGHINQDLTRYELHRVWEVVGTVKPGERHIYAKRHMYIDEDSWQIALVDHYDGRGQLWRVGEGHAQYHYDQKVAGYTLEALYDVIAGRYLALGMNNEEKRGYEFGFKASSADYTPAALRNAGVR | not soluble |
| MGPLWLDVAGYELSAEDRAILAHPTVGGVILFGRNYHDNQQLLALNKAIRQAAARPILIGVDQEGGRVQRFREGFSRIPPAQYYARAENGVELAEQGGWLMAAELIAHDVDLSFAPVLDMGFACKAIGNRAFGEDVQTVLKHSSAFLRGMKAVGMATTGKHFPGHGAVIADSHLETPYDERETIAQDMAIFRAQIEAGVLDAMMPAHVVYPHYDAQPASGSSYWLKQVLREELGFKGIVFSDDLSMEGAAVMGGPVERSHQALVAGCDMILICNKREAAVEVLDNLPIMEVPQAEALLKKQQFSYSELKRLERWQQASANMQRLIEQFSEHHHHHHHHHH | soluble |
| MSLDKPVIKISTENVDLIYRVGDNGRLYQSYLGKRLNHATDIAHLPQGSEAYLTHGMEDYFEPAIHIVHNDGNPSTLLKYVSHTRNQVSPGVDEVVITMQDDKYPVTVKLHYVAYQKENLIKTFTEISHREKKPVQLHKYASSMLHLNRANYFLTEFSGDWASEAHVKEQPLEFGKKTIDTKLGARANMFCSPFFQLALDGKSEENQGEVLVGTLGWTGNFSFVFEVDNKNELRVISGINPYASEYSLKPNEIFRTPDFYFTYSFKGKGQASRNFHDWARKYQVKDGNQTRMTLLNNWEATYFDFDEAKLVKLMDDAVELGVDMFLLDDGWFANKYPRSGDHQGLGDWDETADKLPHGIGYLTEAAKKKGIKFGIWIEPEMVNPKSELYEKHKDWVIHLPNRDEYYFRNQLVLDLSNPKVQDYVFGVVDNLMTKYPDIAFFKWDCNSPITNIYSVYLKDKQSHLYIDYVRGLYNVLERVKAKYPDLPMMLCSGGGGRSDYEALSYFTEFWPSDNTDPIERLFIQWGFSQVFPAKTMCAHVTTWNKNSSVKFRTDVAMMCKLGFDIKLADMSKDDETYCRTAVQNYNRLKPVVLEGDMYRLVSPYGSNHTSTMYVGKDKDKAVVFAFDIHPRYAEKILPVRLQGLDADKMYRVKEINLMPGANSSLSGNGEVFSGEFLMNVGLNLFTTQQLNSRVIEVVAEGHHHHHH | soluble |
| MSSRLARFALSGYRIAGIAAYPFARPYLSYRAAKGKEDKRRRLERFGYASAERPRGPLVWFHAASVGETLALIPLIREIRKRDIFVLLTTGTVTSAELTRTRLGDDVIHQYVPLDIKIAVNRFLTYWAPDAAITAESEIWPVTMMELERRHIPQIRVNARLSDRSFDRWKARHDIAESLFSKLALVVAQSDLDAERFRDLGSWPVVISGNLKGDTDPPPCDEALLESYRKQVGNRKTWAAISTFDGEEKAAATVHAAIKSRNGQLTIIVPRHPERGDDVEAMLKGMNLSVARRSRNDVITPGTDIFLGDSIGEMGLYLRLTELAFVGRSLTAEGGQNPLEPAMLGCAVLSGAHVQNFREAYQKLIRAGGGRIIRDVEMLAKAVHYLLVNDNERYKMIDAGNRVIQDMRGALSSTVKALEPYINPLTVSAKLQPRSAIGSWLEHHHHHH | not soluble |
| MSTVGLFHFPTPLTRICPAPWGLRLWEKLTLLSPGIAVTPVQMAGKKDYPALLSLDENELEEQFVKGHGPGGQATNKTSNCVVLKHIPSGIVVKCHQTRSVDQNRKLARKILQEKVDVFYNGENSPVHKEKREAAKKKQERKKRAKETLEKKKLLKELWESSKKVH | soluble |
| MAHHHHHHMLMVPMKFARAHLRRLHALQPTPTFAIECSLPFLCAWRAMKHRSLAPDDPFGERSTFSDPSDGLFAAWSGVDFNAFADAASSDEVRTAHFGPEWSRFATVGRLSVKIMREQGTPGVASAVSSKGGNKVLPRPPTAEELHSRELQARRKALEGNYATYEQYVMKELGIEDGGNEDEHMEEEMDDATEVANASEESMPLPHFMVERGEGQAHANDTNKQESTNGKPLLRTREGLQVPEPLMQMILDALGEPHGDRHLPRSDPLHWNTEVVILWVRKLEAARFALVSAAGTGEASLLEAPLMEDPSMHEAFRMARTNGKFLLHHTVPNTMFQVMRRWYLRRQEIALTFMKERQEMKNTTSISKDDVNDATFKSALEAGRAKLDELAAKVTPILIQETISQCYPYCH | not soluble |
| MSLKINIKDDAQAYLADKIPAGSQVILTTDDGSNKYSSLGGSCAIGNKFQLVILKAADPDYTTPLENNAGYVMHVAPADEAYLGNGLNISRWHNALALKDDSGMLDGALAVVDWRDVSPETEAERREKMQTIGTKICEGHHHHHH | soluble |
| LIELIQYTPTTDTVRPEPILIVPAWIMKYYILDLSPENSMVKFLVDQGYTVFMISWRNPSAEDRDLGLDDYRKMGVVDAIGAVQGIVPDQKIHGVGYCLGGTLLSISAATMGRDGGDPFASLSYLASQIDFTEPGELQLFINESQLTFLEDMMWDHGYLDTTQMSGAFQMIGSADLVWSRSLHSYLMGDEPAMFDLLAWNADGTRMPYRMHSEYLRSLYLNNELTEGAFVVEGRPISVTDIRVPVFSVGTVKDHVAPWPSVYKMHLYLDTDLTFVLTSGGHN | not soluble |
| MSENMVNLPDSLYEDYSKLKLTSPSNASSSSSAPPPRLSVVAHPTVEMIIQWVCDIHKPKSYMSDFALHNLAYHRNDFEFLPSLLWESKNTVYIMLQEVFEAYRHLAGHISLRLFPHPLNPLRVYNVFLLFQSMACHPDTSRQFLRAKMPNYFYPLMDTGLIDKSDECMRLAALGVIAHMLKASEDGAVNRYLMESGVVGFCVKPIEFGSTETKKVALYILDKIMSTDQGLYYCCVLADRFYVIDELLKKVLFYLSNMVRPPSSLFSLVTGCYVKLSQNSRARNGIRRYTPFLLFDGTFSRLYAEDPVAANNRIQLLQNLDN | soluble |
| MPQITLSAEVQPEQMGQRLDQTLAELFPEYSRSRLKTWIEADLVKLNDRITNIPREKVLGGERIEIIVEVEDETRFEAENIPLNIVYEDDDIIVINKPKDLVVHPGAGNPNGTVLNALLYHYPPIVEVPRAGIVHRLDKDTTGLMVVAKTIPAQTKLVRDLQKRKITREYEAVASGIMTKGGTVDQPMARHATKRTLMAVHPMGKPAVTHYRIMENYRNYTRLRLRLETGRTHQIRVHMAHIAHPLLGDQTYGGRPRPPKNASEDFMEVLRNFKRQALHAVMLRLAHPITGEMMEWYAPLPDDFVELLNALKADYLEHQDELDY | soluble |
